Experiments:
[1] = test system: rabbit reticulysates; experiment: G-CSF modified mRNA in rabbit reticulysates, G-CSF ELISA; format: biochemical; conditions: 250 ng of modified mRNA
Description: (§1) To assess the activity of all our different chemical modifications in the context of a second open reading frame, we replicated experiments previously conducted using luciferase mRNA, with human G-CSF mRNA. […] The mutant T7 polymerase was obtained commercially (Durascribe® T7 Transcription kit (Cat. No. DS010925) (Epicentre®, Madison, Wis.).
(§2) The modified RNA in Tables 27 and 28 were transfected in vitro in HeLa cells or added to rabbit reticulysates (250 ng of modified mRNA) as indicated. […] In Table 27, “NT” means not tested.

[2] = test system: HeLa cells; experiment: Luciferase in HeLa cells using a combination of modifications; format: cell-based, human; conditions: 83 ng luciferase modified RNA, 18 to 22 hours
Description: To evaluate using of 2′fluoro-modified mRNA in combination with other modification a series of mRNA were transcribed using either wild-type T7 polymerase (non-fluoro-containing compounds) or using mutant T7 polymerases (fluyoro-containing compounds) as described in Example 86. All modified mRNA were tested by in vitro transfection in HeLa cells.
The day before transfection, 20,000 HeLa cells (ATCC no. CCL-2; Manassas, Va.) were harvested by treatment with Trypsin-EDTA solution (LifeTechnologies, Grand Island, N.Y.) and seeded in a total volume of 100 ul EMEM medium (supplemented with 10% FCS and 1× Glutamax) per well in a 96-well cell culture plate (Corning, Manassas, Va.). The cells were grown at […] in 5% CO2 atmosphere overnight. […] Lipofectamine 2000 (LifeTechnologies, Grand Island, N.Y.) was used as transfection reagent and 0.2 ul were diluted in 10 ul final volume of OPTI-MEM. After 5 minutes of incubation at room temperature, both solutions were combined and incubated an additional 15 minute at room temperature. Then the 20 ul combined solution was added to the 100 ul cell culture medium containing the HeLa cells and incubated at room temperature.
After 18 to 22 hours of incubation cells expressing luciferase were lysed with 100 ul of Passive Lysis Buffer (Promega, Madison, Wis.) according to manufacturer instructions. Aliquots of the lysates were transferred to white opaque polystyrene 96-well plates (Corning, Manassas, Va.) and combined with 100 ul complete luciferase assay solution (Promega, Madison, Wis.). The lysate volumes were adjusted or diluted until no more than 2 mio relative light units (RLU) per well were detected for the strongest signal producing samples and the RLUs for each chemistry tested are shown in Table 26. The plate reader was a BioTek Synergy H1 (BioTek, Winooski, Vt.). The background signal of the plates without reagent was about 200 relative light units per well.

[3] = test system: HeLa cells; experiment: G-CSF modified mRNA transfected in HeLa cells, G-CSF ELISA; format: cell-based, human; conditions: HeLa cells, ELISA
Description: as §1, §2

[4] = test system: peripheral blood mononuclear cells (PBMC); experiment: In vitro screening in PBMC: G-CSF protein expression by ELISA; format: cell-based, human
Source text: (§3) The supernatant was harvested and stored frozen until analyzed by ELISA to determine the G-CSF protein expression, and the induction of the cytokines interferon-alpha (IFN-α) and tumor necrosis factor alpha (TNF-α).

[5] = test system: interferon-alpha (IFN-α); experiment: In vitro screening in PBMC: interferon-alpha induction by ELISA; format: cell-based, human
Source text: as §3

[6] = test system: tumor necrosis factor alpha (TNF-α); experiment: In vitro screening in PBMC: tumor necrosis factor alpha induction by ELISA; format: cell-based, human
Source text: as §3

[7] = PBMC Donor 1, 500 ng G-CSF mRNA
[8] = PBMC Donor 1, 500 ng G-CSF mRNA, listed as 5-methylcytosine and pseudouridine (2nd set)
[9] = PBMC Donor 1, 500 ng G-CSF mRNA, listed as 5-methylcytosine and pseudouridine (3rd set)
[10] = PBMC Donor 1, 500 ng G-CSF mRNA, listed as 5-methylcytosine and pseudouridine (4th set)
[11] = PBMC Donor 2, 500 ng G-CSF mRNA
[12] = PBMC Donor 2, 500 ng G-CSF mRNA, listed as 5-methylcytosine and pseudouridine (2nd set)
[13] = PBMC Donor 2, 500 ng G-CSF mRNA, listed as 5-methylcytosine and pseudouridine (3rd set)
[14] = PBMC Donor 2, 500 ng G-CSF mRNA, listed as 5-methylcytosine and pseudouridine (4th set)
[15] = PBMC Donor 3, 500 ng G-CSF mRNA
[16] = PBMC Donor 3, 500 ng G-CSF mRNA, listed as 5-methylcytosine and pseudouridine (2nd set)
[17] = PBMC Donor 3, 500 ng G-CSF mRNA, listed as 5-methylcytosine and pseudouridine (3rd set)
[18] = PBMC Donor 3, 500 ng G-CSF mRNA, listed as 5-methylcytosine and pseudouridine (4th set)

Luciferase control: luciferase control mRNA (SEQ ID NO: 409) fully modified with 5-methylcytosine and N1-methylpseudouridine [reference compound]
G-CSF protein (pg/ml) Rabbit reticulysates cells [1]: 0 pg/mL

2′Fluoroguanine/N1-methylpsuedouridine: Luciferase mRNA (SEQ ID NO: 409) modified with the named combination
RLU [2]: 247 RLU

2′Fluoroguanine/pseudouridine: Luciferase mRNA (SEQ ID NO: 409) modified with the named combination
RLU [2]: 218 RLU

2′Fluoroguanine/5-methylcytidine/N1 methylpsuedouridine: Luciferase mRNA (SEQ ID NO: 409) modified with the named combination
RLU [2]: 235 RLU

B1: 5-methylcytosine and pseudouridine (1^st set): G-CSF mRNA (SEQ ID NO: 408) fully modified with 5-methylcytosine and pseudouridine; repeated sets/tests (nucleic acid)
chain: GGGAAAUAAGAGAGAAAAGAAGAGUAAGAAGAAAUAUAAGAGCCACCAUGGCCGGUCCCGCGACCCAAAGCCCCAUGAAACUUAUGGCCCUGCAGUUGCUGCUUUGGCACUCGGCCCUCUGGACAGUCCAAGAAGCGACUCCUCUCGGACCUGCCUCAUCGUUGCCGCAGUCAUUCCUUUUGAAGUGUCUGGAGCAGGUGCGAAAGAUUCAGGGCGAUGGAGCCGCACUCCAAGAGAAGCUCUGCGCGACAUACAAACUUUGCCAUCCCGAGGAGCUCGUACUGCUCGGGCACAGCUUGGGGAUUCCCUGGGCUCCUCUCUCGUCCUGUCCGUCGCAGGCUUUGCAGUUGGCAGGGUGCCUUUCCCAGCUCCACUCCGGUUUGUUCUUGUAUCAGGGACUGCUGCAAGCCCUUGAGGGAAUCUCGCCAGAAUUGGGCCCGACGCUGGACACGUUGCAGCUCGACGUGGCGGAUUUCGCAACAACCAUCUGGCAGCAGAUGGAGGAACUGGGGAUGGCACCCGCGCUGCAGCCCACGCAGGGGGCAAUGCCGGCCUUUGCGUCCGCGUUUCAGCGCAGGGCGGGUGGAGUCCUCGUAGCGAGCCACCUUCAAUCAUUUUUGGAAGUCUCGUACCGGGUGCUGAGACAUCUUGCGCAGCCGUGAAGCGCUGCCUUCUGCGGGGCUUGCCUUCUGGCCAUGCCCUUCUUCUCUCCCUUGCACCUGUACCUCUUGGUCUUUGAAUAAAGCCUGAGUAGGAAG
modifications: 5-methylcytosine/pseudouridine modified; Description of Artificial Sequence: Synthetic Transcript Sequence
notes: repeated sets/tests
G-CSF protein (pg/ml) HeLa cells ([3]; G-CSF mRNA, listed as 5-methylcytosine/pseudouridine, Test A): 609,545 pg/ml
G-CSF protein (pg/ml) HeLa cells ([3]; G-CSF mRNA, listed as 5-methylcytosine/pseudouridine, Test B): 358,182 pg/ml
G-CSF protein (pg/ml) HeLa cells ([3]; G-CSF mRNA, listed as 5-methylcytosine/pseudouridine, Test C): 882,500 pg/ml
G-CSF protein (pg/ml) HeLa cells ([3]; G-CSF mRNA, listed as 5-methylcytosine/pseudouridine, Test D): 87,045 pg/ml
G-CSF protein (pg/ml) HeLa cells ([3]; combination chemistries): 301,364 pg/ml
G-CSF Protein Expression [4, 7]: 2,632 pg/ml
G-CSF Protein Expression [4, 8]: 1,682 pg/ml
G-CSF Protein Expression [4, 9]: 1,595 pg/ml
G-CSF Protein Expression [4, 10]: 264 pg/mL
G-CSF Protein Expression [4, 11]: 1,955 pg/ml
G-CSF Protein Expression [4, 12]: 1,382 pg/ml
G-CSF Protein Expression [4, 13]: 1,432 pg/ml
G-CSF Protein Expression [4, 14]: 350 pg/mL
G-CSF Protein Expression [4, 15]: 1,373 pg/ml
G-CSF Protein Expression [4, 16]: 1,036 pg/ml
G-CSF Protein Expression [4, 17]: 955 pg/mL
G-CSF Protein Expression [4, 18]: 182 pg/mL
IFN-α Expression [5, 7]: 88 pg/mL
IFN-α Expression [5, 8]: 133 pg/mL
IFN-α Expression [5, 9]: 88 pg/mL
IFN-α Expression [5, 10]: 131 pg/mL
IFN-α Expression [5, 11]: 94 pg/mL
IFN-α Expression [5, 12]: 92 pg/mL
IFN-α Expression [5, 13]: 75 pg/mL
IFN-α Expression [5, 14]: 28 pg/mL
IFN-α Expression [5, 15]: 148 pg/mL
IFN-α Expression [5, 16]: 167 pg/mL
IFN-α Expression [5, 17]: 150 pg/mL
IFN-α Expression [5, 18]: 18 pg/mL
TNF-α Expression [6, 7]: 64 pg/mL
TNF-α Expression [6, 8]: 99 pg/mL
TNF-α Expression [6, 9]: 84 pg/mL
TNF-α Expression [6, 10]: 53 pg/mL
TNF-α Expression [6, 11]: 89 pg/mL
TNF-α Expression [6, 12]: 111 pg/mL
TNF-α Expression [6, 13]: 89 pg/mL
TNF-α Expression [6, 14]: 24 pg/mL
TNF-α Expression [6, 15]: 121 pg/mL
TNF-α Expression [6, 16]: 150 pg/mL
TNF-α Expression [6, 17]: 130 pg/mL
TNF-α Expression [6, 18]: 29 pg/mL
G-CSF protein (pg/ml) Rabbit reticulysates cells ([1]; listed as 5-methylcytosine/pseudouridine, Test A): 119,750 pg/ml
G-CSF protein (pg/ml) Rabbit reticulysates cells ([1]; listed as 5-methylcytosine/pseudouridine, Test B): 57,875 pg/ml
G-CSF protein (pg/ml) Rabbit reticulysates cells ([1]; listed as 5-methylcytosine/pseudouridine, Test C): 49,250 pg/ml
G-CSF protein (pg/ml) Rabbit reticulysates cells ([1]; listed as 5-methylcytosine/pseudouridine, Test D): 47,750 pg/ml

Source: patent US20180291335A1, “MODIFIED POLYNUCLEOTIDES FOR ALTERING CELL PHENOTYPE” (ModernaTX, Inc., priority 2012, published 2018)
